Source: patent US20160271244A1

Assays:
[1] = molecular target: gp120 (Table 2, strain not given); test: Luminex bead assay
[2] = molecular target: recombinant human kynureninase (rhKYNU) (human) (UniProt Q16719); test: ELISA on plate-bound rhKynureninase, antibody titrated
HIV-1 Env gp41 (HIV-1) = HIV-1 Env gp41 (HIV-1) (UniProt P05877); test: Luminex bead assay
[3] = molecular target: membrane conjugated gp41-inter; test: SPR, gp41-inter held by Ni on liposomes captured on the chip, mAb injected; bivalent analyte fit [left panel]
[4] = molecular target: recombinant human kynureninase (rhKYNU) (human) (UniProt Q16719); test: ELISA on plate-bound rhKYNU, antibody titrated
[5] = molecular target: recombinant human kynureninase (rhKYNU) (human) (UniProt Q16719); test: ELISA on plate-bound rhKYNU, 2F5 titrated (overlay with DP178-Q16L)
[6] = molecular target: membrane conjugated gp41-inter; test: SPR, gp41-inter held by Ni on liposomes captured on the chip, mAb injected; bivalent analyte fit [right panel]
[7] = molecular target: deglycosylated JRFL gp140 CF (HIV-1); test: SPR, MAb on the surface, Env injected; JRFL wt DEG 500 (PNGase 500 U/µg); Koff (x10^-3 s-1)
[8] = molecular target: deglycosylated JRFL gp140 CF (HIV-1); test: SPR, MAb on the surface, Env injected; JRFL wt DEG 5 (PNGase 5 U/µg); Kon (x10^3 M-1s-1)
SSB [9] = test: Athena autoantigen assay, mAb 25 ug/ml
Sm [10] = test: Athena autoantigen assay, mAb 25 ug/ml
RNP [11] = test: Athena autoantigen assay, mAb 25 ug/ml
Jo 1 [12] = test: Athena autoantigen assay, mAb 25 ug/ml
SSA [13] = test: Athena autoantigen assay, mAb 25 ug/ml
Histone [14] = test: Athena autoantigen assay, mAb 25 ug/ml
Scl 70 [15] = test: Athena autoantigen assay, mAb 25 ug/ml
[16] = molecular target: deglycosylated JRFL gp140 CF (HIV-1); test: SPR, MAb on the surface, Env injected; JRFL wt DEG 500 (PNGase 500 U/µg)
[17] = molecular target: deglycosylated JRFL gp140 CF (HIV-1); test: SPR, MAb on the surface, Env injected; JRFL wt DEG 5 (PNGase 5 U/µg); Koff (x10^-3 s-1)
[18] = molecular target: Influenza HA (Wisconsin) (influenza virus); test: Luminex assay, antibody 50 µg/ml
HCV E2 (HCV) = test: Luminex assay, antibody 50 µg/ml
SSB [19] = test: Athena autoantigen assay, mAb 50 ug/ml
Jo 1 [20] = test: Athena autoantigen assay, mAb 50 ug/ml
SSA [21] = test: Athena autoantigen assay, mAb 50 ug/ml
Histone [22] = test: Athena autoantigen assay, mAb 50 ug/ml
JRFL gp140 (HIV-1) [23] = test: SPR, MAb on the surface, Env injected; JRFFL wt (not deglycosylated); Koff (x10^-3 s-1)
[24] = molecular target: deglycosylated JRFL gp140 CF (HIV-1); test: SPR, MAb on the surface, Env injected; JRFL wt DEG 20 (PNGase 20 U/µg); Kon (x10^3 M-1s-1)
[25] = molecular target: deglycosylated JRFL gp140 CF (HIV-1); test: SPR, MAb on the surface, Env injected; JRFL wt DEG 20 (PNGase 20 U/µg); Koff (x10^-3 s-1)
JRFL gp140 (HIV-1) [26] = test: SPR, MAb on the surface, Env injected; JRFFL wt (not deglycosylated)
JRFL gp140 (HIV-1) [27] = test: SPR, MAb on the surface, Env injected; JRFFL wt (not deglycosylated); Kon (x10^3 M-1s-1)
SSB [28] = test: Athena autoantigen assay, mAb 6.25 ug/ml
Sm [29] = test: Athena autoantigen assay, mAb 6.25 ug/ml
RNP [30] = test: Athena autoantigen assay, mAb 6.25 ug/ml
Jo 1 [31] = test: Athena autoantigen assay, mAb 6.25 ug/ml
SSA [32] = test: Athena autoantigen assay, mAb 6.25 ug/ml
Histone [33] = test: Athena autoantigen assay, mAb 6.25 ug/ml
Scl 70 [34] = test: Athena autoantigen assay, mAb 6.25 ug/ml
[35] = molecular target: deglycosylated JRFL gp140 CF (HIV-1); test: SPR, MAb on the surface, Env injected; JRFL wt DEG 500 (PNGase 500 U/µg); Kon (x10^3 M-1s-1)
SSB [36] = test: Athena autoantigen assay, mAb 12.5 ug/ml
Sm [37] = test: Athena autoantigen assay, mAb 12.5 ug/ml
RNP [38] = test: Athena autoantigen assay, mAb 12.5 ug/ml
Jo 1 [39] = test: Athena autoantigen assay, mAb 12.5 ug/ml
SSA [40] = test: Athena autoantigen assay, mAb 12.5 ug/ml
Histone [41] = test: Athena autoantigen assay, mAb 12.5 ug/ml
Scl 70 [42] = test: Athena autoantigen assay, mAb 12.5 ug/ml
[43] = molecular target: deglycosylated JRFL gp140 CF (HIV-1); test: SPR, MAb on the surface, Env injected; JRFL wt DEG 5 (PNGase 5 U/µg)
[44] = molecular target: deglycosylated JRFL gp140 CF (HIV-1); test: SPR, MAb on the surface, Env injected; JRFL wt DEG 20 (PNGase 20 U/µg)

Sequence of Jo 1 (P12081 2-509): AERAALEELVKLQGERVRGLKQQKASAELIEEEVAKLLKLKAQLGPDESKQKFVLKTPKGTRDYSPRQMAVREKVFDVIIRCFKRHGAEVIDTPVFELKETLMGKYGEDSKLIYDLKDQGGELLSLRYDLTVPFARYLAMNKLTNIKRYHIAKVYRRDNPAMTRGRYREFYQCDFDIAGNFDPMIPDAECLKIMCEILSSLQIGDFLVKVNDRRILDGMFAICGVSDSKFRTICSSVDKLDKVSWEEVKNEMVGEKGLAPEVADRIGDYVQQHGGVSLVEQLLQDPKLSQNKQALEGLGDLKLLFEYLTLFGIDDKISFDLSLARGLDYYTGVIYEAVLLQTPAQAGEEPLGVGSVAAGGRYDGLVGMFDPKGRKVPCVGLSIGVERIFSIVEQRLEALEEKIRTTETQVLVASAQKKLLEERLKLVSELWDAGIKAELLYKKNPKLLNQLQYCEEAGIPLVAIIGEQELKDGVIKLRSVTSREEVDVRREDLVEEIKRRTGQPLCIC
Sequence of recombinant human kynureninase (rhKYNU) (human) (Q16719 whole entry): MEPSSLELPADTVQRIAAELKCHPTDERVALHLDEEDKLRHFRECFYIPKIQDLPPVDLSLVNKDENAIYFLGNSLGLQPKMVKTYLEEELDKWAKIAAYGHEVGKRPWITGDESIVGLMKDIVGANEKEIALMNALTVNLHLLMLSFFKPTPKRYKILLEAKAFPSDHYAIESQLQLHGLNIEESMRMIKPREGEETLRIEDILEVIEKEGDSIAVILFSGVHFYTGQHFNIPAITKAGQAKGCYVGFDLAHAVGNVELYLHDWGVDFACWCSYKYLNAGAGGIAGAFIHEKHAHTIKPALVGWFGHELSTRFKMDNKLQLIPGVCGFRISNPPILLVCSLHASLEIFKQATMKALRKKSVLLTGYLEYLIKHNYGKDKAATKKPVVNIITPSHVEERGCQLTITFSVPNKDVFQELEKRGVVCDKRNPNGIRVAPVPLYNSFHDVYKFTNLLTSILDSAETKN
Sequence of SSB (P05455 whole entry): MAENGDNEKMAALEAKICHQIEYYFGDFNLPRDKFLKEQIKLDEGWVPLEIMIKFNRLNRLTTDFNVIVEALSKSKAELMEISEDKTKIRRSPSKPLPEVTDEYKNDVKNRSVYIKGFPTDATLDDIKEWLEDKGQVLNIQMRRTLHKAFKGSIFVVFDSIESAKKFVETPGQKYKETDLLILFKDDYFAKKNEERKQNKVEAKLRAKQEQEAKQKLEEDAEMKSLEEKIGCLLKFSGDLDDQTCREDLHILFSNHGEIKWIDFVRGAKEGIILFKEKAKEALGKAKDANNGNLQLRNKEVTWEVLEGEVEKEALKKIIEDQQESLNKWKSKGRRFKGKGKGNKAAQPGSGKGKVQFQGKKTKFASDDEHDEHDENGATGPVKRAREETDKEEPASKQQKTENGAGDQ

## 1b12 original (antibody)
[1]
  Reactivity in Luminex Units (Luminex units): 5110

## 2F5 (antibody)
[2]
  EC50 (read off the curve): 0.03 µg/mL
[1]
  Reactivity in Luminex Units (Luminex units): 9240
HIV-1 Env gp41 (HIV-1)
  Reactivity in Luminex Units (Luminex units): 32700
[3]
  Kd: 0.21 nM
  koff: 9e-06 s⁻¹
[4]
  EC50 (read off the curve): 0.05 µg/mL
[5]
  EC50 (read off the curve): 0.05 µg/mL

## 4E10 (antibody)
[6]
  Kd: 0.73 nM
  koff: 2.5e-05 s⁻¹
[7]
  koff: 0.001 s⁻¹
[8]
  kon: 7400 M⁻¹ s⁻¹
SSB [9]
  Athena autoreactivity score: 206
Sm [10]
  Athena autoreactivity score: 7
RNP [11]
  Athena autoreactivity score: 15
Jo 1 [12]
  Athena autoreactivity score: 138
SSA [13]
  Athena autoreactivity score: 247
Histone [14]
  Athena autoreactivity score: 274
Scl 70 [15]
  Athena autoreactivity score: 4
[16]
  Kd: 50 nM
[17]
  koff: 0.001 s⁻¹
[18]
  background subtracted RFUs: 0 RFU
HCV E2 (HCV)
  background subtracted RFUs: 89.2 RFU
SSB [19]
  Athena autoreactivity score: 254
Jo 1 [20]
  Athena autoreactivity score: 156
SSA [21]
  Athena autoreactivity score: 306
Histone [22]
  Athena autoreactivity score: 333
JRFL gp140 (HIV-1) [23]
  koff: 0.0013 s⁻¹
[24]
  kon: 27000 M⁻¹ s⁻¹
[25]
  koff: 0.00099 s⁻¹
JRFL gp140 (HIV-1) [26]
  Kd: 2200 nM
JRFL gp140 (HIV-1) [27]
  kon: 600 M⁻¹ s⁻¹
SSB [28]
  Athena autoreactivity score: 93
Sm [29]
  Athena autoreactivity score: 4
RNP [30]
  Athena autoreactivity score: 6
Jo 1 [31]
  Athena autoreactivity score: 65
SSA [32]
  Athena autoreactivity score: 115
Histone [33]
  Athena autoreactivity score: 113
Scl 70 [34]
  Athena autoreactivity score: 2
[35]
  kon: 21000 M⁻¹ s⁻¹
SSB [36]
  Athena autoreactivity score: 124
Sm [37]
  Athena autoreactivity score: 5
RNP [38]
  Athena autoreactivity score: 9
Jo 1 [39]
  Athena autoreactivity score: 87
SSA [40]
  Athena autoreactivity score: 169
Histone [41]
  Athena autoreactivity score: 160
Scl 70 [42]
  Athena autoreactivity score: 3
[43]
  Kd: 135 nM
[44]
  Kd: 40 nM

## 17b original (CCR5 binding site antibody)
HIV-1 Env gp41 (HIV-1)
  Reactivity in Luminex Units (Luminex units): 1430

## CH02 (antibody)
SSB [9]
  Athena autoreactivity score: 4.5
Sm [10]
  Athena autoreactivity score: 3
RNP [11]
  Athena autoreactivity score: 9
Jo 1 [12]
  Athena autoreactivity score: 1.5
SSA [13]
  Athena autoreactivity score: 6
Histone [14]
  Athena autoreactivity score: 11.5
Scl 70 [15]
  Athena autoreactivity score: 2
[18]
  background subtracted RFUs: 0.3 RFU
HCV E2 (HCV)
  background subtracted RFUs: 333 RFU
SSB [28]
  Athena autoreactivity score: 5
Sm [29]
  Athena autoreactivity score: 2.5
RNP [30]
  Athena autoreactivity score: 5
Jo 1 [31]
  Athena autoreactivity score: 1.5
SSA [32]
  Athena autoreactivity score: 5
Histone [33]
  Athena autoreactivity score: 7
Scl 70 [34]
  Athena autoreactivity score: 2
SSB [36]
  Athena autoreactivity score: 3.5
Sm [37]
  Athena autoreactivity score: 2.5
RNP [38]
  Athena autoreactivity score: 6
Jo 1 [39]
  Athena autoreactivity score: 1
SSA [40]
  Athena autoreactivity score: 5
Histone [41]
  Athena autoreactivity score: 8.5
Scl 70 [42]
  Athena autoreactivity score: 1.5
